In patent publication US20250115669A1, “FGFR1/KLB Targeting Agonistic Antigen-Binding Proteins and Conjugates Thereof with GLP-1R Agonistic Peptides” (SANOFI, priority 2020, published 2025):
pKd: −log10 of the molar value. Read-outs that look alike come from different tables or passages of the source. Marks after values point to notes of the source that are not given here.

Columns and labels:
[1] = Hydrophobic interaction chromatography (HIC); assay type: physicochemical
Experimental: The analysis was run at a flow rate of 1 mL/min with detection at 280 nm. 5 μg of undiluted protein sample were applied onto the column. Gradient elution was from 15% B to 85% B in 7 min followed by 1 min to 100% B, then 1 min to 15% B and then 3 minutes equilibration at 15% B. Buffer A was composed of 1.5 mol/L ammonium sulfate, 25 mmol/L sodium phosphate pH 7.0. Buffer B was composed of 25 mmol/L sodium phosphate pH 7.0. Data evaluation was performed either using LabSolutions software v5.85 (Shimadzu) or Chromeleon 7 software (Thermo Fisher Scientific).

human beta-Klotho = target: T1, human beta-Klotho (Homo sapiens, UniProt Q86Z14); assay: SPR binding affinity and kinetics to human beta-Klotho (Biacore 8K, anti-human Fc capture)
T1 sequence (Q86Z14 1-1044): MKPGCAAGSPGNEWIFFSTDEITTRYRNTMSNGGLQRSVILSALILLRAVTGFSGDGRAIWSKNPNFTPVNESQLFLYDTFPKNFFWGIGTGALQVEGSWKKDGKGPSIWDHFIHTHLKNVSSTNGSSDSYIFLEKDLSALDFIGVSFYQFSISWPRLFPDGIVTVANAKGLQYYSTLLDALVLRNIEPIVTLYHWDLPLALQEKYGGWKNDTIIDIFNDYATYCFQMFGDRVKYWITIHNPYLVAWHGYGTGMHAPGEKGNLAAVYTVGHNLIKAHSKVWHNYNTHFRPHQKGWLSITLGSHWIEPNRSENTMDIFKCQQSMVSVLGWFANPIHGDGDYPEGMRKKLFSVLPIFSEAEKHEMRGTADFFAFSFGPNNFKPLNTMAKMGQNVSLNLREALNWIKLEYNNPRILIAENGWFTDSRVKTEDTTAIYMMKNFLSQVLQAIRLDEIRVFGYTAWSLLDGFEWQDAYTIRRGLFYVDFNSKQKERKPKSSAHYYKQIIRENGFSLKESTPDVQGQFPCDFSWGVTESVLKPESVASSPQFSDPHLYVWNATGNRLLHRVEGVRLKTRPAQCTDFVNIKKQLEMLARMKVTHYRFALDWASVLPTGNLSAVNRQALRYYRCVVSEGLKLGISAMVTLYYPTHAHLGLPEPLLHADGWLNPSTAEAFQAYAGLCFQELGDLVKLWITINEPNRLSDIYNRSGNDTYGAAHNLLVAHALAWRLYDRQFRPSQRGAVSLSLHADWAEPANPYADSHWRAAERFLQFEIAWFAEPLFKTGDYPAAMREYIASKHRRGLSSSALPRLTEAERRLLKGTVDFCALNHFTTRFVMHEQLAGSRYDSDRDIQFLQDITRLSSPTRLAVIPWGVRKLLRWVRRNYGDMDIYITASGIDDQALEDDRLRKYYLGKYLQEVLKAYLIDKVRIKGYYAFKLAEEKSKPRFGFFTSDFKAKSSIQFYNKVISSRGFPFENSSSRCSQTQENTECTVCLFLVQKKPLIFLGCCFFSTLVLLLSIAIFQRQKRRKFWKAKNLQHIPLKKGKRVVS
Experimental: (§1) Binding affinity and kinetics were measured on a Biacore 8K instrument (GE Healthcare). For the affinity capture of the diluted mAb sample, an anti-human Fc antibody (human antibody capture kit, GE Healthcare) was immobilized on all eight channels of a series S CM5 sensor chip (GE Healthcare) to approximately 10.000 RU. The anti-beta-Klotho antibodies were diluted into HBS-EP+ assay buffer (GE Healthcare) to 0.04 μg/mL. The antibodies were injected in the sample compartment, whereas the reference compartment was used without captured antibody. […] For the antigen inject the flow rate was adjusted to 60 μL/min with an association time of 180 sec and a dissociation time of 1800 sec. The maximum binding signal of beta-Klotho was in the range of 30 RU. At the end of each cycle an inject of regeneration solution, supplied with human antibody capture kit (GE Healthcare), supplemented with 10% non-specific binding reducer (GE Healthcare), for 1 min at 30 μL/min to remove antibody and antigen was performed. Binding kinetics data were evaluated with a 1:1 binding model using the Biacore 8K Evaluation Software version 1.1.1.7442 (GE Healthcare).
(§2) For interaction analysis with human beta-klotho, mAbs were captured via an anti-human Fc antibody immobilized on a series S CM5 sensor chip (human antibody capture kit, GE Healthcare). […] Binding kinetics data were evaluated with a 1:1 binding model using the Biacore 8K Evaluation Software version 1.1.1.7442 (GE Healthcare). For interaction analysis with Cynomolgus monkey beta-klotho, mAbs were captured via an anti-human Fc antibody immobilized on a series S CM5 sensor chip (human antibody capture kit, GE Healthcare). […] Binding kinetics data were evaluated with a 1:1 binding model using the Biacore 8K Evaluation Software version 1.1.1.7442 (GE Healthcare). Exemplary sensorgrams for the interaction are shown in FIG. 7 (human KLB) and 8 (monkey KLB), as well as in Table G.

[2] = target: cynomolgus monkey beta-Klotho; assay: SPR binding affinity and kinetics to cynomolgus monkey beta-Klotho (Biacore 8K, anti-human Fc capture); parameters: species or system Cynomolgus monkey (Macaca fascicularis); settings: 1:1 binding model, read-out: KD monkey KLB
Experimental: as §1, §2

[3] = In vivo PK in transgenic humanized FcRn mice (Tg32); settings: 0.3 mg/kg single IV, plasma; for t½: noncompartmental analysis
Experimental: In vivo PK studies were conducted in transgenic humanized FcRn mice (Tg32). For these studies, no GLP compliance was claimed.

[4] = Size-exclusion chromatography (SEC); assay type: physicochemical
Experimental: Analytical SEC was performed using a BioSECcurity instrument (PSS Polymer) with an AdvanceBio 300 column (4.6 mm×300 mm) and AdvanceBio 300 guard column (Agilent Technologies) at room temperature. The analysis was run at a flow rate of 0.5 mL/min using 2× concentrated D-PBS buffer (Thermo Fisher Scientific) with detection at 280 nm. 10 μL of protein sample (at 1 mg/mL) were applied onto the column. Data evaluation was performed using WinGPC software v8.1 (PSS Polymer). For estimation of the molecular weight, the SEC column was calibrated with the AdvanceBio SEC 300 Å Protein Standard (Agilent Technologies).

[5] = SPR, 1:1 binding model, read-out: KD human KLB

Row | Substance | Hydrophobic variance HIC Number of peaks [1] | HIC Number of peaks ([1]; pH 5, 40° C., d 21) | HIC Number of peaks ([1]; pH 5, d 0) | HIC Number of peaks ([1]; pH 6, 40° C., d 21) | HIC Number of peaks ([1]; pH 6, d 0) | HIC Number of peaks ([1]; pH 8, 40° C., d 21) | HIC Number of peaks ([1]; pH 8, d 0) | pKd (human beta-Klotho; [5]) | pKd (human beta-Klotho; read-out: Affinity SPR KD) | pKd [2] | t½ [3] [days] | SEC % HMW ([4]; pH 5, 40° C., d 21) [%] | SEC % LMW ([4]; pH 5, 40° C., d 21) [%] | SEC % HMW ([4]; pH 5, d 0) [%] | SEC % LMW ([4]; pH 5, d 0) [%] | SEC % HMW ([4]; pH 6, 40° C., d 21) [%] | SEC % LMW ([4]; pH 6, 40° C., d 21) [%] | SEC % HMW ([4]; pH 6, d 0) [%] | SEC % LMW ([4]; pH 6, d 0) [%] | SEC % HMW ([4]; pH 8, 40° C., d 21) [%] | also measured
1 | Ab0428: IgG1 NNAS; 16H7 VL (N25S, D49S, D50E, D91E, N93E); 16H7 VH (M34V, I83T, D109E); HC SEQ ID NO: 41, LC SEQ ID NO: 48 | 1 | 1 | 1 | 1 | 1 | 1 | 1 | 9.69 | 9.68 | 8.60 | 13.8 | 1 | 2 | 2 | 0 | 0 | 2 | 1 | 0 | 1 | SEC % LMW ([4]; pH 8, 40° C., d 21): 3%; SEC % HMW ([4]; pH 8, d 0): 1%; SEC % LMW ([4]; pH 8, d 0): 0%
2 | Ab0430: IgG1 NNAS; 16H7 VL (N25S, D49E, D50E, D91E, N93E); 16H7 VH (M34V, I83T, D109E); HC SEQ ID NO: 43, LC SEQ ID NO: 50 | 1 | 1 | 1 | 1 | 1 | 1 | 1 | 9.54 | 9.54 | 8.53 | 15.7 | 1 | 2 | 1 | 0 | 0 | 2 | 1 | 0 | 1 | SEC % LMW ([4]; pH 8, 40° C., d 21): 4%; SEC % HMW ([4]; pH 8, d 0): 2%; SEC % LMW ([4]; pH 8, d 0): 0%
3 | Ab0351: IgG4 PE; 16H7 VL (N25S, D49E, D50E, D91E, N93E); 16H7 VH (M34V, I83T, D109E); HC SEQ ID NO: 40, LC SEQ ID NO: 47 | 1 | 1 | 1 | 1 | 1 | 1 | 1 | 9.61 | 9.60 | – | 14.2 | 1 | 0 | 2 | 0 | 1 | 0 | 0 | 0 | 2 | affinity to human KLB compared to 16H7 (human beta-Klotho): comparable affinity; SEC % LMW ([4]; pH 8, 40° C., d 21): 1%; SEC % HMW ([4]; pH 8, d 0): 1%; SEC % LMW ([4]; pH 8, d 0): 0%
4 | Ab0429: IgG1 NNAS; 16H7 VL (N25S, D49S, D50A, D91E, N93E); 16H7 VH (M34V, I83T, D109E); HC SEQ ID NO: 42, LC SEQ ID NO: 49 | 1 | 1 | 1 | 1 | 1 | 1 | 1 | 9.73 | 9.72 | 8.66 | 13.9 | 1 | 2 | 2 | 0 | 0 | 1 | 0 | 0 | 1 | SEC % LMW ([4]; pH 8, 40° C., d 21): 3%; SEC % HMW ([4]; pH 8, d 0): 2%; SEC % LMW ([4]; pH 8, d 0): 0%
5 | Ab0335: IgG4 PE; 16H7 VL (N25S, D49S, D50A, D91E, N93E); 16H7 VH (M34V, I83T, D109E); HC SEQ ID NO: 39, LC SEQ ID NO: 46 | 1 | 1 | 1 | 1 | 1 | 1 | 1 | 9.80 | 9.80 | 8.53 | – | 0 | 0 | 1 | 0 | 0 | 0 | 1 | 0 | 5 | affinity to human KLB compared to 16H7 (human beta-Klotho): comparable affinity; t½ calculated with compartment model ([3]; compartment model): 300* h; SEC % LMW ([4]; pH 8, 40° C., d 21): 1%; SEC % HMW ([4]; pH 8, d 0): 2%; SEC % LMW ([4]; pH 8, d 0): 0%
6 | Ab0331: IgG4 PE; 16H7 VL (N25S, D49S, D50E, D91E, N93E); 16H7 VH (M34V, I83T, D109E); HC SEQ ID NO: 38, LC SEQ ID NO: 45 | 1 | 1 | 1 | 1 | 1 | 1 | 1 | 9.69 | 9.68 | 8.46 | 14.9 | 1 | 0 | 1 | 0 | 0 | 0 | 1 | 0 | 1 | affinity to human KLB compared to 16H7 (human beta-Klotho): comparable affinity; SEC % LMW ([4]; pH 8, 40° C., d 21): 1%; SEC % HMW ([4]; pH 8, d 0): 2%; SEC % LMW ([4]; pH 8, d 0): 0%
7 | 16H7: anti FGFR1c/KLB monoclonal antibody of WO 2011/071783, IgG2 backbone; HC SEQ ID NO: 1, LC SEQ ID NO: 2 [Ab 16H7] | – | – | – | – | – | – | – | – | – | 9.37 | 13 | – | – | – | – | – | – | – | – | – | –
